Reference: patent US20150111246A1, “SITE-SPECIFIC ENZYMATIC MODIFICATION OF EXENDINS AND ANALOGS THEREOF” (priority 2012, published 2015)
Bridge positions count the residues as written; N and C are the ends. Peptide text beside a SMILES is read from it. * marks the point of attachment. NH(mPEG24) = COCCOCCOCCOCCOCCOCCOCCOCCOCCOCCOCCOCCOCCOCCOCCOCCOCCOCCOCCOCCOCCOCCOCCOCCN*

Assays:
[1] = target: T1, GLP-1 receptor (Rattus norvegicus, UniProt P32301); experiment: GLP-1 receptor binding displacement assay; settings: text of Examples 6, 7, 12
T1 construct: endogenous in cells; host or cells: RINm5F cell membranes
T1 sequence (P32301 22-463): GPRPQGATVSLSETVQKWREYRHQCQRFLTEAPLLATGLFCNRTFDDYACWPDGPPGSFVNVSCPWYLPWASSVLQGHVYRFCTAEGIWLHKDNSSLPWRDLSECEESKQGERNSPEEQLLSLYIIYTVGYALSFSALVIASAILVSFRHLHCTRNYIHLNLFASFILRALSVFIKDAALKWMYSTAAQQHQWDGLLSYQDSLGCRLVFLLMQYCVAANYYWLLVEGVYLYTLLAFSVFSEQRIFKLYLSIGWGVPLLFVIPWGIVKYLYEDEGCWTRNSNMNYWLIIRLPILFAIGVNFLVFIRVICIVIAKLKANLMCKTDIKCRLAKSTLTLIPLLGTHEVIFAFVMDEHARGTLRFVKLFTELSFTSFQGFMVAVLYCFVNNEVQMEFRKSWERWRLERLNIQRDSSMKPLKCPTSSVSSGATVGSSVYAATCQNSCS
Procedure: GLP-1 receptor binding and functional assays: GLP-1 receptor binding activity and affinity may be measured in any number of known methods. […] Reaction mixtures are filtered through glass filter pads presoaked with 0.3% PEI solution and rinsed with ice-cold phosphate buffered saline. Bound counts are determined using a scintillation counter. Binding affinities can be calculated using GraphPad Prism® software (GraphPad Software, Inc., San Diego, Calif.).

[2] = target: GLP-1 receptor (UniProt P32301); experiment: radioligand displacement, RINm5F cell membranes, [125I]GLP-1 (or exendin) tracer
[3] = target: GLP-1 receptor (UniProt P32301); experiment: cell-based or functional assay
[4] = target: T2, GLP-1 receptor (UniProt P32301 22-463, limits assumed); experiment: cell-based or functional assay
T2 sequence (looked up): T1 sequence (P32301 22-463)

[5] = target: T3, GLP-1 receptor, P32301; experiment: GLP-1 binding assay (radioligand displacement), as the filing names it
T3 chain: T1 sequence (P32301 22-463)

`CC[C@H](C)[C@H](NC(=O)[C@@H]1CCCN1C(=O)CNC(=O)[C@H](Cc1ccccc1)NC(=O)[C@H](CC(N)=O)NC(=O)[C@H](CC(N)=O)NC(=O)[C@H](CO)NC(=O)[C@H](CO)NC(=O)[C@H](Cc1c[nH]cn1)NC(=O)[C@@H](NC(=O)[C@H](CC(C)C)NC(=O)[C@H](Cc1ccccc1)NC(=O)[C@H](CC(N)=O)NC(=O)[C@H](C)NC(=O)[C@H](CC(C)C)NC(=O)[C@H](CCCNC(=N)N)NC(=O)[C@H](CCC(=O)NCCOCCOCCOCCOCCOCCOCCOCCOCCOCCOCCOCCOCCOCCOCCOCCOCCOCCOCCOCCOCCOCCOCCOCCOC)NC(=O)[C@@H](NC(=O)[C@H](C)NC(=O)[C@@H]1CSSC[C@H](NC(=O)[C@@H](N)CCCCN)C(=O)N[C@@H](CC(N)=O)C(=O)N[C@@H]([C@@H](C)O)C(=O)N[C@@H](C)C(=O)N[C@@H]([C@@H](C)O)C(=O)N1)[C@@H](C)O)C(C)C)C(=O)N[C@@H](CC(C)C)C(=O)N1CCC[C@H]1C(=O)N1CCC[C@H]1C(=O)N[C@H](C(=O)N[C@@H](CC(N)=O)C(=O)N[C@H](C(=O)NCC(=O)N[C@@H](CO)C(=O)N[C@@H](CC(N)=O)C(=O)N[C@H](C(=O)N[C@@H](Cc1ccc(O)cc1)C(N)=O)[C@@H](C)O)C(C)C)[C@@H](C)O` [Example 12] (H-KCNTATCATE(NH(mPEG24))RLANFLVHSSNNFGPILPPTNVGSNTY-NH2; disulfide 2-7; N-terminus and C-terminus assumed) showed an IC50 [1] of 80 nM.

Exendin-4 (peptide) was tested, and the IC50 [2] was 0.333 nM and the GLP-1 Function ED50 [3] was 3 pM.

B1: [des-^1H, ^2G(imidazoacetyl), ^13N, ^14L]-Exendin-4-^40Q biotin cadaverine amide adduct attached at ^40Q (MW 4564.46) (peptide)
peptide: GEGTFTSDLSKNLEEEAVRLFIEWLKNGGPSSGAPPPSQ
modifications: imidazoacetyl on Gly 2 in place of His 1; biotin cadaverine amide on the side chain of Gln 40
B1 was tested, and the “EC50 in the GLP-1 functional assay” value [4] was 4 pM.

Molecule KCNTATCATQRLANFLVHSSNNFGPILPPTNVGSNTY (modifications not checked) [Pramlintide pegylated with m-dPEG24 amine at the glutamine at position 10] has an IC50 [5] of 80 nM.
